Key:
Experiment in all cases: two-hybrid library CCmax;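 also: natural log of median RNA to DNA barcode read ratio; higher means stronger binding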
[1] = molecular target: T1, 4H317-AA; settings: mean of both orientations
T1 chain: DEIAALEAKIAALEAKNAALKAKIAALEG

[2] = molecular target: T2, 4H2617-AA; settings: mean of both orientations
T2 chain: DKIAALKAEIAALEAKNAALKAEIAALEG

[3] = molecular target: T3, 4H2466-AA; settings: mean of both orientations
T3 chain: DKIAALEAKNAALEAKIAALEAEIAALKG

[4] = molecular target: T4, 4H1636-AA
T4 chain: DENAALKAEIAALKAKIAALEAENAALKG

[5] = molecular target: T5, 4H342-AA; settings: mean of both orientations
T5 chain: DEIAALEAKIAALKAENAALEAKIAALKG

[6] = molecular target: T6, 4H717-AA; settings: mean of both orientations
T6 chain: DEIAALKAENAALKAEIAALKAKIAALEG

[7] = molecular target: T7, 4H3921-AA; settings: mean of both orientations
T7 chain: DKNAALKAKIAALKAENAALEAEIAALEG

[8] = molecular target: T8, 4H234-AA; settings: mean of both orientations
T8 chain: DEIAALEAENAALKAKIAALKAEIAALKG

[9] = molecular target: T9, 4H566-AA; settings: mean of both orientations
T9 chain: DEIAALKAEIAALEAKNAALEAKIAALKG

[10] = molecular target: T10, 4H2277-AA; settings: mean of both orientations
T10 chain: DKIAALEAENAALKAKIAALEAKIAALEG

[11] = molecular target: T11, 4H454-AA; settings: mean of both orientations
T11 chain: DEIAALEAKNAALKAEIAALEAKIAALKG

[12] = molecular target: T12, 4H2949-AA; settings: mean of both orientations
T12 chain: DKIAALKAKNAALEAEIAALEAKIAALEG

[13] = molecular target: T13, 4H429-AA; settings: mean of both orientations
T13 chain: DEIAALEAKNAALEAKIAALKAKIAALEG

[14] = molecular target: T14, 4H780-AA; settings: mean of both orientations
T14 chain: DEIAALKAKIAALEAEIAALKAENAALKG

[15] = molecular target: T15, 4H881-AA; settings: mean of both orientations
T15 chain: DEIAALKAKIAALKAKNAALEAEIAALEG

[16] = molecular target: T16, 4H3844-AA; settings: mean of both orientations
T16 chain: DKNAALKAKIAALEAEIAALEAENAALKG

[17] = molecular target: T17, 4H2837-AA; settings: mean of both orientations
T17 chain: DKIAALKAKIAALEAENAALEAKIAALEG

[18] = molecular target: T18, 4H2729-AA; settings: mean of both orientations
T18 chain: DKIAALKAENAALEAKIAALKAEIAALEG

[19] = molecular target: T19, 4H2575-AA; settings: mean of both orientations
T19 chain: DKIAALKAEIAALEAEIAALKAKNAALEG

[20] = molecular target: T20, 4H2754-AA; settings: mean of both orientations
T20 chain: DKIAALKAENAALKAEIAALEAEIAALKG

[21] = molecular target: T21, 4H2642-AA; settings: mean of both orientations
T21 chain: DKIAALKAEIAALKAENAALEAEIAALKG

[22] = molecular target: T22, 4H3112-AA; settings: mean of both orientations
T22 chain: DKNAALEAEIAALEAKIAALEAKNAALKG

[23] = molecular target: T23, 4H2354-AA; settings: mean of both orientations
T23 chain: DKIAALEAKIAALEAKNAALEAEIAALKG

[24] = molecular target: T24, 4H2190-AA; settings: mean of both orientations
T24 chain: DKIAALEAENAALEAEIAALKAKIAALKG

[25] = molecular target: T25, 4H794-AA; settings: mean of both orientations
T25 chain: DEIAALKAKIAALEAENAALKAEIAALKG

[26] = molecular target: T26, 4H335-AA; settings: mean of both orientations
T26 chain: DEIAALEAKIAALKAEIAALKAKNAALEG

[27] = molecular target: T27, 4H2078-AA; settings: mean of both orientations
T27 chain: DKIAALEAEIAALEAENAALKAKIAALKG

[28] = molecular target: T28, 4H605-AA; settings: mean of both orientations
T28 chain: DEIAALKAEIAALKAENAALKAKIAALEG

[29] = molecular target: T29, 4H906-AA; settings: mean of both orientations
T29 chain: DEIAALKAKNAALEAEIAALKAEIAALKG

[30] = molecular target: T30, 4H2393-AA; settings: mean of both orientations
T30 chain: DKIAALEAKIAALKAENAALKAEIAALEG

[31] = molecular target: T31, 4H2505-AA; settings: mean of both orientations
T31 chain: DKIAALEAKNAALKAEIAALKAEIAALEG

[32] = molecular target: T32, 4H1867-AA; settings: mean of both orientations
T32 chain: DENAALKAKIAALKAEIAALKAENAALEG

[33] = molecular target: T33, 4H2883-AA; settings: mean of both orientations
T33 chain: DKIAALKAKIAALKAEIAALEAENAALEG

[34] = molecular target: T34, 4H3606-AA; settings: mean of both orientations
T34 chain: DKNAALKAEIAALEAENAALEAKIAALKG

[35] = molecular target: T35, 4H48-AA; settings: mean of both orientations
T35 chain: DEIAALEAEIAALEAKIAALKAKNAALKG

[36] = molecular target: T36, 4H2165-AA; settings: mean of both orientations
T36 chain: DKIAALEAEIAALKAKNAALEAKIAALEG

[37] = molecular target: T37, 4H678-AA; settings: mean of both orientations
T37 chain: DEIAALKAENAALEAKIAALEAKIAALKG

[38] = molecular target: T38, 4H2944-AA; settings: mean of both orientations
T38 chain: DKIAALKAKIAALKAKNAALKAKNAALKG

[39] = molecular target: T39, 4H3343-AA; settings: mean of both orientations
T39 chain: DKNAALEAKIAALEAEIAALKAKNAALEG

[40] = molecular target: T40, 4H3655-AA; settings: mean of both orientations
T40 chain: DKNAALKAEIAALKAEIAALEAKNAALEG

[41] = molecular target: T41, 4H2151-AA; settings: mean of both orientations
T41 chain: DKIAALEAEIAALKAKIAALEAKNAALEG

[42] = molecular target: T42, 4H993-AA; settings: mean of both orientations
T42 chain: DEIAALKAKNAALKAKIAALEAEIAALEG

[43] = molecular target: T43, 4H3427-AA; settings: mean of both orientations
T43 chain: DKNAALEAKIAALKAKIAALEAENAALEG

[44] = molecular target: T44, 4H3627-AA; settings: mean of both orientations
T44 chain: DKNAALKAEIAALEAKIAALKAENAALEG

[45] = molecular target: T45, 4H1874-AA; settings: mean of both orientations
T45 chain: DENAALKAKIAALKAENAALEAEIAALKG

[46] = molecular target: T46, 4H982-AA; settings: mean of both orientations
T46 chain: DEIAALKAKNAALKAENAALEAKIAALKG

[47] = molecular target: T47, 4H3413-AA; settings: mean of both orientations
T47 chain: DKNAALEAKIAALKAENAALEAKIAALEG

[48] = molecular target: T48, 4H340-AA; settings: mean of both orientations
T48 chain: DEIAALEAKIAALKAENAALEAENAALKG

[49] = molecular target: T49, 4H2611-AA; settings: mean of both orientations
T49 chain: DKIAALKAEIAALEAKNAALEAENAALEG

[50] = molecular target: T50, 4H3133-AA; settings: mean of both orientations
T50 chain: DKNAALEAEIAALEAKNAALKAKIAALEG

[51] = molecular target: T51, 4H2553-AA; settings: mean of both orientations
T51 chain: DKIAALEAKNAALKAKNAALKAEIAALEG

[52] = molecular target: T52, 4H1629-AA; settings: mean of both orientations
T52 chain: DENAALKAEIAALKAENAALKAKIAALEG

[53] = molecular target: T53, 4H3162-AA; settings: mean of both orientations
T53 chain: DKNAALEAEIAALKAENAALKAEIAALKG

[54] = molecular target: T54, 4H3718-AA
T54 chain: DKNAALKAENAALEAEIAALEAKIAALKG

[55] = molecular target: T55, 4H2648-AA; settings: mean of both orientations
T55 chain: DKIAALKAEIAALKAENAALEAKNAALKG

[56] = molecular target: T56, 4H3056-AA; settings: mean of both orientations
T56 chain: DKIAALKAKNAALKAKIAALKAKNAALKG

[57] = molecular target: T57, 4H2198-AA; settings: mean of both orientations
T57 chain: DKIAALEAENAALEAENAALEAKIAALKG

[58] = molecular target: T58, 4H3588-AA; settings: mean of both orientations
T58 chain: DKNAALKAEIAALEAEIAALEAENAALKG

[59] = molecular target: T59, 4H1594-AA
T59 chain: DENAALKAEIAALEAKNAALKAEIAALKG

[60] = molecular target: T60, 4H2907-AA; settings: mean of both orientations
T60 chain: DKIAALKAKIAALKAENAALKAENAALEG

[61] = molecular target: T61, 4H697-AA; settings: mean of both orientations
T61 chain: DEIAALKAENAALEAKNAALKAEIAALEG

[62] = molecular target: T62, 4H1845-AA; settings: mean of both orientations
T62 chain: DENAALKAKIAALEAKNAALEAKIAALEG

[63] = molecular target: T63, 4H3865-AA; settings: mean of both orientations
T63 chain: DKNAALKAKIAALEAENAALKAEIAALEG

[64] = molecular target: T64, 4H2620-AA; settings: mean of both orientations
T64 chain: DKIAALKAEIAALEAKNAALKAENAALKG

[65] = molecular target: T65, 4H32-AA; settings: mean of both orientations
T65 chain: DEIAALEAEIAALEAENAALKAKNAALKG

[66] = molecular target: T66, 4H3631-AA; settings: mean of both orientations
T66 chain: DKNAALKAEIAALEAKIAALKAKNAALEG

[67] = molecular target: T67, 4H3378-AA; settings: mean of both orientations
T67 chain: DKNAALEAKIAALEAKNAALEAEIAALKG

[68] = molecular target: T68, 4H3697-AA; settings: mean of both orientations
T68 chain: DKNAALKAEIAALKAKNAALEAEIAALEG

[69] = molecular target: T69, 4H384-AA; settings: mean of both orientations
T69 chain: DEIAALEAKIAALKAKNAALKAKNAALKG

## DENAALKAEIAALKAKIAALEAENAALKG [4H1636-AA]
[1]
  interaction score: -1.74
[2]
  interaction score: -1.46
[3]
  interaction score: -2.07
[4]
  interaction score: 2.39
[5]
  interaction score: -1.29
[6]
  interaction score: -0.951
[7]
  interaction score: -1.8
[8]
  interaction score: -1.95
[9]
  interaction score: -1.41
[10]
  interaction score: -1.87
[11]
  interaction score: -1.23
[12]
  interaction score: -1.16
[13]
  interaction score: -1.27
[14]
  interaction score: -1.3
[15]
  interaction score: -1.46
[16]
  interaction score: -0.519
[17]
  interaction score: -1.5
[18]
  interaction score: -1.23
[19]
  interaction score: -0.963
[20]
  interaction score: -1.42
[21]
  interaction score: -1.33
[22]
  interaction score: -0.658
[23]
  interaction score: -1.49
[24]
  interaction score: -0.932
[25]
  interaction score: -1.68
[26]
  interaction score: -1.41
[27]
  interaction score: -1.57
[28]
  interaction score: -1.56
[29]
  interaction score: -1.91
[30]
  interaction score: -0.706
[31]
  interaction score: -1.47
[32]
  interaction score: -0.897
[33]
  interaction score: -1.16
[34]
  interaction score: -1.17
[35]
  interaction score: -1.07
[36]
  interaction score: -1.82
[37]
  interaction score: -1.1
[38]
  interaction score: -1.81
[39]
  interaction score: -1.42
[40]
  interaction score: -0.763
[41]
  interaction score: -0.999
[42]
  interaction score: -1.52
[43]
  interaction score: -0.846
[44]
  interaction score: -0.519

## DENAALKAEIAALEAKNAALKAEIAALKG [4H1594-AA]
[45]
  interaction score: 2.24
[46]
  interaction score: 1.3
[47]
  interaction score: 1.73
[48]
  interaction score: 0.908
[49]
  interaction score: -1.7
[50]
  interaction score: -2.2
[51]
  interaction score: -1.6
[52]
  interaction score: -0.822
[53]
  interaction score: 0.0257
[54]
  interaction score: -1.13
[55]
  interaction score: -0.627
[56]
  interaction score: -2.01
[57]
  interaction score: -1.61
[58]
  interaction score: -1.26
[59]
  interaction score: 1.19
[60]
  interaction score: -1.36
[61]
  interaction score: -2.03
[62]
  interaction score: -0.968
[63]
  interaction score: 1.15
[64]
  interaction score: -1.5
[65]
  interaction score: -1.19
[34]
  interaction score: 1.96
[66]
  interaction score: -1.31
[67]
  interaction score: -0.189
[68]
  interaction score: 0.415
[69]
  interaction score: -1.64

Source: publication PMC10397247
